Numbering of substitutions follows the chain as printed.
B1: NRC3_wobSeed114_DR4_A14C_o1 (dsDNA)
DNA 1: GCAATACAGGGTCCTCGTAGGCCAGAGTACGCACAGGCGATTGACAGCGTAGAATGAAGG
DNA 2: CCTTCATTCTACGCTGTCAATCGCCTGTGCGTACTCTGGCCTACGAGGACCCTGTATTGC
B2: NRC3_wobSeed82_DR3_G14C_o1 (dsDNA)
DNA 1: GCATCGAAAGGTCCACGAGGTGAGTATACACCGTTTGCGATTGACAGCGTAGAATGAAGG
DNA 2: CCTTCATTCTACGCTGTCAATCGCAAACGGTGTATACTCACCTCGTGGACCTTTCGATGC
B3: NRC3_random_hg19_218_o1 (dsDNA)
DNA 1: GCTTAGTCATGAAGTCTTTGCCCATGCCTGTGTCCTGCGATTGACAGCGTAGAATGAAGG
DNA 2: CCTTCATTCTACGCTGTCAATCGCAGGACACAGGCATGGGCAAAGACTTCATGACTAAGC
B4: NRC3_random_hg19_1_o1 (dsDNA)
DNA 1: GCGTGTTTGATTCTCATTGTCACCTTCTCTAGGCCTGCGATTGACAGCGTAGAATGAAGG
DNA 2: CCTTCATTCTACGCTGTCAATCGCAGGCCTAGAGAAGGTGACAATGAGAATCAAACACGC
B5: NRC3_random_hg19_317_o1 (dsDNA)
DNA 1: GCGCCTCCTTCTTTCCTTTGTCATCTGGTGGTGGGAGCGATTGACAGCGTAGAATGAAGG
DNA 2: CCTTCATTCTACGCTGTCAATCGCTCCCACCACCAGATGACAAAGGAAAGAAGGAGGCGC
B6: NRC3_wobSeed136_DR5_G11C_o1 (dsDNA)
DNA 1: GCTAGCCTAGCTCATTCAGGGGCCAGTATAGAAAGCGCGATTGACAGCGTAGAATGAAGG
DNA 2: CCTTCATTCTACGCTGTCAATCGCGCTTTCTATACTGGCCCCTGAATGAGCTAGGCTAGC
B7: NRC3_random_hg19_51_o1 (dsDNA)
DNA 1: GCGAGAAAGCTGAACTGTCACTCTTTGCTGATGATGGCGATTGACAGCGTAGAATGAAGG
DNA 2: CCTTCATTCTACGCTGTCAATCGCCATCATCAGCAAAGAGTGACAGTTCAGCTTTCTCGC
B8: NRC3_wobSeed138_DR5_A8G_o1 (dsDNA)
DNA 1: GCGATACGGGGTCAGCTAGAGGCCAGAGTATGGAAAGCGATTGACAGCGTAGAATGAAGG
DNA 2: CCTTCATTCTACGCTGTCAATCGCTTTCCATACTCTGGCCTCTAGCTGACCCCGTATCGC
B9: NRC3_wobSeed110_DR4_A9T_o1 (dsDNA)
DNA 1: GCTCTGCTTGGTCAACGATGGTCAGCTAATCTGCTAGCGATTGACAGCGTAGAATGAAGG
DNA 2: CCTTCATTCTACGCTGTCAATCGCTAGCAGATTAGCTGACCATCGTTGACCAAGCAGAGC
B10: NRC3_wobSeed110_DR4_G10T_o1 (dsDNA)
DNA 1: B9 DNA 1 with T9A, G10T
DNA 2: B9 DNA 2 with C51A, A52T
B11: NRC3_random_hg19_159_o1 (dsDNA)
DNA 1: GCGGTTCAACATTCAGCAAACATTGGATGATAGTTTGCGATTGACAGCGTAGAATGAAGG
DNA 2: CCTTCATTCTACGCTGTCAATCGCAAACTATCATCCAATGTTTGCTGAATGTTGAACCGC
B12: NRC3_random_hg19_328_o1 (dsDNA)
DNA 1: GCACTTAGAGCCCAGGAGCTTGAGGTCGCAGCTACTGCGATTGACAGCGTAGAATGAAGG
DNA 2: CCTTCATTCTACGCTGTCAATCGCAGTAGCTGCGACCTCAAGCTCCTGGGCTCTAAGTGC
B13: NRC3_random_hg19_231_o1 (dsDNA)
DNA 1: GCATTACAAAGGTGCTGGAAAGGCTTGGGAGGAGCAGCGATTGACAGCGTAGAATGAAGG
DNA 2: CCTTCATTCTACGCTGTCAATCGCTGCTCCTCCCAAGCCTTTCCAGCACCTTTGTAATGC
B14: NRC3_wobSeed6_DR0_G17T_o1 (dsDNA)
DNA 1: GCCCTAGCAGGCCAGGTTCACTCAAGCATTTCGCTTGCGATTGACAGCGTAGAATGAAGG
DNA 2: CCTTCATTCTACGCTGTCAATCGCAAGCGAAATGCTTGAGTGAACCTGGCCTGCTAGGGC
B15: NRC3_wobSeed45_DR1_A9C_o1 (dsDNA)
DNA 1: GCTGTCAACGTTCAAAGGTAACGTAAGTATCCACACGCGATTGACAGCGTAGAATGAAGG
DNA 2: CCTTCATTCTACGCTGTCAATCGCGTGTGGATACTTACGTTACCTTTGAACGTTGACAGC
B16: NRC3_random_hg19_31_o1 (dsDNA)
DNA 1: GCCAAGAGGACTCGCACAGTGGTGCATGGCAGCTTGGCGATTGACAGCGTAGAATGAAGG
DNA 2: CCTTCATTCTACGCTGTCAATCGCCAAGCTGCCATGCACCACTGTGCGAGTCCTCTTGGC
B17: NRC3_random_hg19_416_o1 (dsDNA)
DNA 1: GCCCTAGTTGGACCTGTGGGAAGGGCACTACTGTTCGCGATTGACAGCGTAGAATGAAGG
DNA 2: CCTTCATTCTACGCTGTCAATCGCGAACAGTAGTGCCCTTCCCACAGGTCCAACTAGGGC
B18: NRC3_random_hg19_229_o1 (dsDNA)
DNA 1: GCTAAACTGTATCCACTTACCTTTCTCAGAACCTTTGCGATTGACAGCGTAGAATGAAGG
DNA 2: CCTTCATTCTACGCTGTCAATCGCAAAGGTTCTGAGAAAGGTAAGTGGATACAGTTTAGC
B19: NRC3_random_hg19_224_o1 (dsDNA)
DNA 1: GCCTTCCTAACTGAATCACCTCATCAACAGCTAAACGCGATTGACAGCGTAGAATGAAGG
DNA 2: CCTTCATTCTACGCTGTCAATCGCGTTTAGCTGTTGATGAGGTGATTCAGTTAGGAAGGC
B20: NRC3_random_hg19_410_o1 (dsDNA)
DNA 1: GCTAACGAATGATCTTTCTAATGTGTTGTTGAATTCGCGATTGACAGCGTAGAATGAAGG
DNA 2: CCTTCATTCTACGCTGTCAATCGCGAATTCAACAACACATTAGAAAGATCATTCGTTAGC
B21: NRC3_random_hg19_253_o1 (dsDNA)
DNA 1: GCTAGCCCTCTCAGAGGACAGAGCTAGGATAGCATGGCGATTGACAGCGTAGAATGAAGG
DNA 2: CCTTCATTCTACGCTGTCAATCGCCATGCTATCCTAGCTCTGTCCTCTGAGAGGGCTAGC
B22: NRC3_random_hg19_14_o1 (dsDNA)
DNA 1: GCGCAGGGACTATGTGCATTAGGCCAGTTCCTCATGGCGATTGACAGCGTAGAATGAAGG
DNA 2: CCTTCATTCTACGCTGTCAATCGCCATGAGGAACTGGCCTAATGCACATAGTCCCTGCGC
B23: NRC3_wobSeed58_DR2_G10T_o1 (dsDNA)
DNA 1: GCATCGAAATGTCGTGAGGTGAGTATACAGAAAGGCGCGATTGACAGCGTAGAATGAAGG
DNA 2: CCTTCATTCTACGCTGTCAATCGCGCCTTTCTGTATACTCACCTCACGACATTTCGATGC
B24: NRC3_wobSeed58_DR2_G10C_o1 (dsDNA)
DNA 1: B23 DNA 1 with T10C
DNA 2: B23 DNA 2 with A51G
B25: NRC3_wobSeed46_DR1_A16C_o1 (dsDNA)
DNA 1: GCTTACCAAGGTGAACGGTCGTTGATGCACGCCTTGGCGATTGACAGCGTAGAATGAAGG
DNA 2: CCTTCATTCTACGCTGTCAATCGCCAAGGCGTGCATCAACGACCGTTCACCTTGGTAAGC
B26: NRC3_random_hg19_313_o1 (dsDNA)
DNA 1: GCACTACATAAGTAATCATCTCCCTCTGCAACTGGGGCGATTGACAGCGTAGAATGAAGG
DNA 2: CCTTCATTCTACGCTGTCAATCGCCCCAGTTGCAGAGGGAGATGATTACTTATGTAGTGC
B27: NRC3_random_hg19_175_o1 (dsDNA)
DNA 1: GCGAGGAAGCTAAGCACTGCAAGGAAGAGGGTCAGAGCGATTGACAGCGTAGAATGAAGG
DNA 2: CCTTCATTCTACGCTGTCAATCGCTCTGACCCTCTTCCTTGCAGTGCTTAGCTTCCTCGC
B28: NRC3_random_hg19_168_o1 (dsDNA)
DNA 1: GCACAGAAATGAAATGGGCTATAGAGCTCATCTTCTGCGATTGACAGCGTAGAATGAAGG
DNA 2: CCTTCATTCTACGCTGTCAATCGCAGAAGATGAGCTCTATAGCCCATTTCATTTCTGTGC
B29: NRC3_random_hg19_270_o1 (dsDNA)
DNA 1: GCTATAGGAAGCAGGATGTTTCTTGAGAGTGTGGCCGCGATTGACAGCGTAGAATGAAGG
DNA 2: CCTTCATTCTACGCTGTCAATCGCGGCCACACTCTCAAGAAACATCCTGCTTCCTATAGC
B30: NRC3_random_hg19_20_o1 (dsDNA)
DNA 1: GCTACACTCTCCCAAGACTAAACCAGGAAGAAGTTGGCGATTGACAGCGTAGAATGAAGG
DNA 2: CCTTCATTCTACGCTGTCAATCGCCAACTTCTTCCTGGTTTAGTCTTGGGAGAGTGTAGC

What was measured:
Test in all cases: no ligand; PBM; 270 nM : 90 nM RXRa; PBS pH 7.4, 2% milk, 0.02% Triton X-100, 1 mM DTT, BSA, 0.4 mg/ml salmon testes DNA
RARg:RXRa = RARg:RXRa (Homo sapiens, UniProt P13631;P19793 full;full); conditions: tags: His kept;His cleaved; copies: 1;1; label: surface-attached array probe
How it was run: (§1)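 Scanned fluorescence from custom Agilent 4×180K protein-binding microarrays was regression-normalized. Binding z-scores use random background probes as reference. Ligand-free nuclear receptor dimers were incubated on the arrays for 1 h and detected with antibodies against each partner (one per run).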

FXR:RXRa = FXR:RXRa (Homo sapiens, UniProt Q96RI1;P19793 full;full); conditions: tags: His kept;His cleaved; copies: 1;1; label: surface-attached array probe
How it was run: as §1

PPARa:RXRa = PPARa:RXRa (Homo sapiens, UniProt Q07869;P19793 full;full); conditions: tags: GST kept;His cleaved; copies: 1;1; label: surface-attached array probe
How it was run: as §1

Sequence of PPARa:RXRa (Q07869 whole entry, chain 1 of 2): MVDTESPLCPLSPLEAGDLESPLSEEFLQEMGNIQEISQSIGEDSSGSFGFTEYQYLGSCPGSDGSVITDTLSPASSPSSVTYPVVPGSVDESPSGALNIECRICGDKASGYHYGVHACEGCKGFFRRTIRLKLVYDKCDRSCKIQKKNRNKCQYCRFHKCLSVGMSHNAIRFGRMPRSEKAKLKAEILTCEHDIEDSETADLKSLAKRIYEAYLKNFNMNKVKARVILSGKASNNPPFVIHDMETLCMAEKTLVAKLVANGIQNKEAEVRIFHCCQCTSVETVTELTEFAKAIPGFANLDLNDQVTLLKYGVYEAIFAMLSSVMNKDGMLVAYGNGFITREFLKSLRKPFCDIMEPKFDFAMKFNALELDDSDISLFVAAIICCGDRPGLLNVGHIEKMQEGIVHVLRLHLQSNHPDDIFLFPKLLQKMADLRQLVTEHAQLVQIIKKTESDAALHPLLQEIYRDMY
Sequence of PPARa:RXRa (P19793 whole entry, chain 2 of 2): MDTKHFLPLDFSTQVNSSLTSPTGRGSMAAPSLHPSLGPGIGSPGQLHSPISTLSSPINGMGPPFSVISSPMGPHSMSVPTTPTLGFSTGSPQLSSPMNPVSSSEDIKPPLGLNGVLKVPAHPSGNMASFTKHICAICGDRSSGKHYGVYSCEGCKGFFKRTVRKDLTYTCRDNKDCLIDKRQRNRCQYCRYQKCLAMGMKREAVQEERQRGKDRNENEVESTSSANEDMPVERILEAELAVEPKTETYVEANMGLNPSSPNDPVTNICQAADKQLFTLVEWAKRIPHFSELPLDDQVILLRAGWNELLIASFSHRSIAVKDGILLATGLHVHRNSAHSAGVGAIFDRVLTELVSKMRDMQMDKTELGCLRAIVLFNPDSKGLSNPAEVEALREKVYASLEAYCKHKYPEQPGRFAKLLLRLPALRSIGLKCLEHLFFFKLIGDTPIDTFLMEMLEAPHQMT
Sequence of RARg:RXRa (P13631 whole entry, chain 1 of 2): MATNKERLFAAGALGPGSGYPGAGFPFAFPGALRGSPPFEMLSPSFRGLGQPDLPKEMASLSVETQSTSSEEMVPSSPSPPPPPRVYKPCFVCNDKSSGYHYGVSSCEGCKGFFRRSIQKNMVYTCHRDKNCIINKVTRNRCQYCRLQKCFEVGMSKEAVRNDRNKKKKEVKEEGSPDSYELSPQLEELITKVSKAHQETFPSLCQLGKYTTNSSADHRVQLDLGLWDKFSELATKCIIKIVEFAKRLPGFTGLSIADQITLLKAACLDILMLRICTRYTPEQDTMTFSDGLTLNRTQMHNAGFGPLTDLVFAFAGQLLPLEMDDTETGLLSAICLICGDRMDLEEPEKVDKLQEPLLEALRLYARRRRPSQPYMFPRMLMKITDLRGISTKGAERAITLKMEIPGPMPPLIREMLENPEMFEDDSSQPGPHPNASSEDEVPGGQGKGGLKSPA
Sequence of RARg:RXRa (P19793 whole entry, chain 2 of 2): as the sequence (P19793 whole entry, chain 2 of 2) above
Sequence of FXR:RXRa (Q96RI1 whole entry, chain 1 of 2): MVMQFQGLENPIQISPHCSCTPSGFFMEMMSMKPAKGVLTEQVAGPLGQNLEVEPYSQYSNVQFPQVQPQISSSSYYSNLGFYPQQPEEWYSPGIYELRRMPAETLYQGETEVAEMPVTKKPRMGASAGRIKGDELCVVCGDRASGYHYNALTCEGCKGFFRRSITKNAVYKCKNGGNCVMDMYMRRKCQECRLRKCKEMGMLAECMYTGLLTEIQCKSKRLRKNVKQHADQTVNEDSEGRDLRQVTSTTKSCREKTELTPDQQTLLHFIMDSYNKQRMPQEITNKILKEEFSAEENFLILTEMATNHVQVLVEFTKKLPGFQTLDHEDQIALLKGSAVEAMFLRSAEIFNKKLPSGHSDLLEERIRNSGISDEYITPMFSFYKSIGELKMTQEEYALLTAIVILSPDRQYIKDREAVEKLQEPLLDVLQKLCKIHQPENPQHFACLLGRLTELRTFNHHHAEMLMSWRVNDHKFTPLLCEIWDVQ
Sequence of FXR:RXRa (P19793 whole entry, chain 2 of 2): as the sequence (P19793 whole entry, chain 2 of 2) above

Row | Binder | binding signal (RARg:RXRa) | binding signal (FXR:RXRa) | binding signal (PPARa:RXRa)
1 | B1 | 0.23 PBM z-score against 500 random probes | – | –
2 | B2 | – | 0.48 PBM z-score against 500 random probes | –
3 | B3 | -0.54 PBM z-score against 500 random probes | – | –
4 | B4 | 0.33 PBM z-score against 500 random probes | – | –
5 | B5 | -1.07 PBM z-score against 500 random probes | – | -0.11 PBM z-score against 500 random probes
6 | B6 | -0.31 PBM z-score against 500 random probes | – | –
7 | B7 | 0.04 PBM z-score against 500 random probes | – | –
8 | B8 | 7.98 PBM z-score against 500 random probes | – | 6.77 PBM z-score against 500 random probes
9 | B9 | 0.29 PBM z-score against 500 random probes | – | –
10 | B10 | 0.22 PBM z-score against 500 random probes | – | –
11 | B11 | 0.49 PBM z-score against 500 random probes | – | –
12 | B12 | 0.09 PBM z-score against 500 random probes | – | –
13 | B13 | -0.04 PBM z-score against 500 random probes | – | –
14 | B14 | 0.25 PBM z-score against 500 random probes | – | –
15 | B15 | – | 0.46 PBM z-score against 500 random probes | –
16 | B16 | -0.25 PBM z-score against 500 random probes | – | -0.47 PBM z-score against 500 random probes
17 | B17 | -0.27 PBM z-score against 500 random probes | – | –
18 | B18 | 0.44 PBM z-score against 500 random probes | – | –
19 | B19 | 0.38 PBM z-score against 500 random probes | – | –
20 | B20 | 0.07 PBM z-score against 500 random probes | – | –
21 | B21 | -0.23 PBM z-score against 500 random probes | – | –
22 | B22 | -0.69 PBM z-score against 500 random probes | – | -1.96 PBM z-score against 500 random probes
23 | B23 | 0.29 PBM z-score against 500 random probes | – | –
24 | B24 | 0.27 PBM z-score against 500 random probes | – | –
25 | B25 | – | 0.48 PBM z-score against 500 random probes | –
26 | B26 | 0.18 PBM z-score against 500 random probes | – | –
27 | B27 | -0.07 PBM z-score against 500 random probes | – | –
28 | B28 | -0.02 PBM z-score against 500 random probes | – | –
29 | B29 | -0.4 PBM z-score against 500 random probes | – | -0.83 PBM z-score against 500 random probes
30 | B30 | 0.15 PBM z-score against 500 random probes | – | 0.29 PBM z-score against 500 random probes

— paper PMC6555819, “Comprehensive study of nuclear receptor DNA binding provides a revised framework for understanding receptor specificity”
